Type in all cases: cell-based, rat
In one data set the test system is PKC isoforms. Description: Immunoblot of PKC isoform partitioning and down-regulation in cardiomyocytes. The following applies: 400 ng/ml, early time points 30 min-2 hr. The method, then:
rPMT selectively activates nPKC isoforms. […] Soluble extracts were prepared and separated by SDS-PAGE followed by immunodetection of total PKC isoform abundance with antibodies that are specific for the individual PKC isoforms (Panel A), or phosphorylated forms of PKC (largely PKCε) with a pan-phospho-PKC antibody (Panels B and C), as described in Methods below. GF109203 was included at 5 μM 30 min prior to stimulation as indicated.
Cells were maintained in culture in the presence of 10% FCS for 96 hr and then switched to serum-free medium for 24 hr prior to the addition of agonists as indicated. For PKC, extracts were prepared and subjected to SDS-PAGE to resolve individual isoforms according to methods described previously (14).
Specific immunoreactivity for individual PKC isoforms was quantified according to methods described previously. […] Bands were detected by enhanced chemiluminescence and blots were quantified by laser scanning densitometry.

The test system of the next data set is p38-MAPK. The data set is described as follows: Phospho-p38 MAP kinase Western blot in cardiomyocytes. The method, then:
(§1) rPMT promotes the activation of ERK1/2, JNK and p38-MAPK cascades. Incubations were for 24 hr in the presence of the indicated concentrations of rPMT. PMA (100 nM, 5 min) and sorbitol ([…], 5 min) were included as positive controls. Cell lysates were subjected to SDS-PAGE followed by Western blotting as described in Methods below. Phosphorylated forms of ERK1/2 (A), p38 MAP kinase (B) or JNK (C) were detected by specific anti-phospho-ERK1/2, -p38 MAP kinase or -JNK antibodies, respectively. Blots were stripped and subjected to immunoblot analysis with total ERK1/2 or p38 MAP kinase to normalize for minor variations in protein loading (Panels A and B). Top: representative autoradiograms (with each lane from a single gel exposed for the same duration). Bottom: quantification of each series of experiments (n=3).
(§2) Specific immunoreactivity for individual PKC isoforms was quantified according to methods described previously. For assays of MAPKs and AKT, cells were exposed to test agents as indicated in individual experimental protocols, washed three times with ice-cold calcium/magnesium-free Dulbecco's PBS (pH 7.1), scraped into ice-cold extraction buffer [20 mM β-glycerophosphate pH 7.5, 20 mM sodium fluoride, 2 mM EDTA, 0.2 mM sodium vanadate, 10 μg/ml aprotinin, 25 μg/ml leupeptin, 50 μg/ml PMSF, and 0.3% (v/v) β-mercaptoethanol], lysed by sonication, and centrifuged at 10,000 g for 10 min at 4° C. The supernatant was diluted in SDS-PAGE sample buffer, boiled for 5 min, and stored at −70° C. Western blot analysis was performed with antibodies that are selective for the phosphorylated (activated) forms of ERK1/2, p38-MAPK, JNK, AKT, and pan-PKC according to manufacturer's instructions. For each panel in each Figure, the results are from a single gel exposed for a uniform duration. Bands were detected by enhanced chemiluminescence and blots were quantified by laser scanning densitometry.

A further data set has as its system JNK. Description: Phospho-JNK Western blot in cardiomyocytes. How it is done:
as §1, §2

Data set [1] relates to cardiomyocytes. Description: Cardiomyocyte growth: sarcomeric organization and cell size. The following applies: rPMT 400 ng/ml or NE 10 μM, 48 hr, serum-free. How it is done:
(§3) rPMT mimics the effect of norepinephrine to promote cardiomyocyte hypertrophy. Cardiomyocytes were cultured in serum-free medium without or with rPMT (400 ng/ml) or norepinephrine (NE, 10 μM) for 48 hr. Cardiomyocytes were fixed, permeabilized, and stained with monoclonal anti-α-actinin sarcomeric (Panel A, magnification×100) or subjected to Northern blot analysis for measurements of steady-state ANF mRNA expression (Panel B). Effects of rPMT (black bars) and NE (gray bars) vs. vehicle (white bars) on sarcomeric organization (Panel C), cell size (Panel D), and protein synthesis (Panel E) are illustrated (n=3 for each).
Cardiomyocyte growth was assessed by measuring cell surface area by digitized image analysis. For each experimental point, 7-10 frames/dish were recorded at 40× magnification with a video camera attached to a Nikon microscope which was calibrated with a micrometer.
Cardiomyocytes were grown on slides precoated with fibronectin. After treatment, cells were fixed with cold methanol and permeabilized with 0.1% Triton X-100 and 0.2% BSA. Cells were incubated with α-actinin monoclonal antibody overnight at 4° C. followed by anti-mouse IgG-Cy3-labeled antibody for 30 min at room temperature. Fluorescence microscopy images were obtained at 100× magnification.

Data set [2] has as its system cardiomyocytes. The data set is described as follows: Protein synthesis ([3H]phenylalanine incorporation) in cardiomyocytes. The conditions noted are these: rPMT 400 ng/ml or NE 10 μM, 48 hr, serum-free. The method, then:
as §3
As a second index of cardiomyocyte growth, relative rates of protein synthesis were measured as radiolabeled phenylalanine incorporation into cell protein. Cells were stimulated in serum-free medium with agonists (or vehicle as control) for 48 hr at 37° C. The medium was replaced with serum-free medium containing [^3H]phenylalanine (0.1 μCi/ml) and non-radioactive phenylalanine (0.3 mM, to minimize variations in the specific activity of the precursor pool responsible for protein synthesis) during the final 24 hr of stimulation. Cells were rinsed with PBS and incubated in 10% trichloroacetic acid for 30 min on ice. […] Aliquots of the SDS-soluble protein were counted in 5 ml of scintillant.

The subject of another data set is ANF mRNA. Description: Northern blot analysis of ANF mRNA in cardiomyocytes. The following applies: rPMT 400 ng/ml or NE 10 μM, 48 hr, serum-free. How it is done: as §3
Total RNA from neonatal rat cardiomyocytes were isolated by using a Qiagen kit according to manufacturer's instructions. A rat ANF cDNA probe (˜600 bp) was labeled with [^32P]dCTP. 10 μ/g of total RNA was separated on a 1% agarose gel and transferred to a nylon membrane (Amersham). Prehybridization and hybridization were performed according to standard methods. Normalization of signals was performed with a glyceraldehyde-3-phosphate dehydrogenase probe. Signals were detected by Phosphorimage analysis.

For data set [3], the system named is cardiomyocytes. Description: TUNEL assay of apoptosis in cardiomyocyte cultures. How it is done: rPMT increases H2O2-induced apoptosis in cardiomyocyte cultures. Cells were treated without or with rPMT (400 ng/ml) for 24 hr followed by H202 (500 μM) for 24 hr. The percentage of cells undergoing apoptosis was measured by TUNEL assay as described in Methods below. Data are from a single experiment and are representative of results obtained on 3 separate culture preparations.
TUNEL staining was performed for detection of apoptotic cells according to manufacturer's instructions (Boehringer). Approximately 500 cardiomyocytes were imaged by fluorescence microscopy and the number of cells that scored TUNEL-positive is presented as a percentage of total.

Where [4] appears, read: 24 hr, indicated concentrations.
Setting [5] is: increased progressively for 24 hr.
Setting [6] is: rPMT 24 hr, sorbitol 5 min positive control.

B1: rPMT: recombinant Pasteurella multocida toxin, a Gαq agonist used as pharmacological probe (protein, UniProt P17452 1-1285, looked up)
Dermonecrotic toxin: MKTKHFFNSDFTVKGKSADEIFRRLCTDHPDKQLNNVKWKEVFINRFGQMMLDTPNPRKIVEKIINEGLEKQGLKNIDPETTYFNIFSSSDSSDGNVFHYNSLSESYRVTDACLMNIFVERYFDDWDLLNSLASNGIYSVGKEGAYYPDHDYGPEYNPVWGPNEQIYHSRVIADILYARSVWDEFKKYFMEYWQKYAQLYTEMLSDTFLAMAIQQYTRQTLTDEGFLMVCNTYYGNKEEVQITLLDIYGYPSTDIICIEQKGLPTPKVILYIPGGTQPFVEFLNTDDLKQWIAWHLKDNKHMVAFRKHFSLKQRQEGETFTGIDKALQYIAEESPEWPANKYILYNPTHLETENLFNIMMKRTEQRMLEDSDVQIRSNSEATRDYALSLLETFISQLSAIDMLVPAVGIPINFALSATALGLSSDIVVNGDSYEKRKYGIGSLVQSALFTGINLIPVISETAEILSSFSRTEEDIPAFFTEEQALAQRFEIVEEELHSISPDDPPREITDENLHKIRLVRLNNENQPLVVLRRLGGNKFIRIEPITFQEIKGSLVSEVINPVTNKTYYVSNAKLLGGSPYSPFRIGLEGVWTPEVLKARASVIGKPIGESYKRILAKLQRIHNSNILDERQGLMHELMELIDLYEESQPSSERLNAFRELRTQLEKALYLPEMEALKKQILQIPNKGSGAARFLLRTAMNEMAGKTSESTADLIRFALQDTVISAPFRGYAGAIPEAIDFPVKYVIEDISVFDKIQTNYWELPAYESWNEGSNSALLPGLLRESQSKGMLSKCRIIENSLYIGHSYEEMFYSISPYSNQVGGPYELYPFTFFSMLQEVQGDLGFEQAFATRNFFNTLVSDRLSLMENTMLLTESFDYTPWDAIYGDINYDEQFAAMSINERIEKCMNTYRGVAFQNSSKSIDFFLNNLTTFIDNGLTEIAISDLPYDIVQQEISQFLQGSNEWKTLDAMLFNLDKGDINGAFRKLLQSAKDNNIKFRAIGHSDNSVPPFNNPYKSLYYKGNIIAEAIEKLDREGQKFVVFADSSLLNSTPGTGRPMPGLVQYLKIPATVVDSDGAWQFLPDVASSRVPIEVTELENWQVLTPPQGKILGLKQFKLTAGFPTEQSRLPLLENSVSEDLREELMQKIDAIKNDVKMNSLVCMEAGSCDSVSPKVAARLKDMGLEAGMGASITWWRREGGMEFSHQMHTTASFKFAGKEFAVDASHLQFVHDQLDTTILILPVDDWALEIAQRNRAINPFVEYVSKTGNMLALFMPPLFTKPRLTRAL
As for B1, the “partitioning of PKC isoforms between soluble and particulate fractions” value in the data set on PKC isoforms was “does not detectably alter”. In the data set on p38-MAPK, the “expression of total p38-MAPK protein” value is “does not significantly alter”. The “signaling through the p38-MAPK cascade (phosphorylation of terminal kinase)” value in the data set on p38-MAPK (setting [4]) was “dose-dependent increases”. Also, the “time at which p38-MAPK activation is detectable” value in the data set on p38-MAPK (setting [5]) was found to be 1 h. For the same molecule, the “magnitude of p38-MAPK activation” value in the data set on p38-MAPK (setting [6]) is recorded as “more modest”. Besides, in the data set with JNK, the “expression of total JNK protein” value is “does not significantly alter”. Also, in the data set with JNK (setting [4]), the “signaling through the JNK cascade (phosphorylation of terminal kinase)” value was “dose-dependent increases”. Besides, the “time at which JNK activation is detectable” value with JNK (setting [5]) came out at 1 h. In addition, the “magnitude of JNK activation” value with JNK (setting [6]) is recorded as “more modest”. In the data set on cardiomyocytes [1], the “cell size (cellular enlargement)” value is recorded as “induce marked cellular enlargement” and the “myofibrillar (sarcomeric) organization” value is listed as “promote myofibrillar organization”. For the same molecule, in the data set on cardiomyocytes [2], the “[3H]phenylalanine incorporation (protein synthesis)” value is “enhance [^3H]phenylalanine incorporation”. Also, the “ANF mRNA expression” value with ANF mRNA is given as “induce ANF mRNA expression”. For the same molecule, the “effect on H2O2-induced apoptosis” value with cardiomyocytes [3] (rPMT 400 ng/ml 24 hr followed by H2O2 500 μM 24 hr) was “augmented”. Further, the “number of TUNEL-positive cells” value with cardiomyocytes [3] (serum-free conditions for 48 hr) is on record as “small increase”.

The values are drawn from patent US20030134774A1, “Methods for inhibiting cardiac disorders” (priority 2001, published 2003).
